Results published in US20090081786A1 (published 2009).

B1: glutathione-S-transferase-delta V5 PKC fusion protein (other)
chain: PKVKSPSDYSNFDPEFLNEKPQLSFSDKNLIDSMDQEAFHGFSFVNPKFEQFLDI
notes: Used as crude bacterial cell lysate (30 µg) containing the fusion protein; also called GST-δV5; δ-V5; not shown: glutathione-S-transferase (GST) fusion tag
B2: ε-V1 (V1 region of ε-PKC) (other)
chain: MVVFNGLLKIKICEAVSLKPTAWSLRHAVGPRPQTFLLDPYIALNVDDSRIGQTATKQKTNSPAWHDEFVTDVCNGRKIELAVFHDAPIGYDDFVANCTIQFEELLQNGSRHFEDWIDLEPEGKVYVIIDLSGSSGEAPKDNEE
B3: myelin basic protein (MBP)-delta V1 PKC fusion protein (other)
chain: MAPFLRISFNSYELGSLQAEDDASQPFCAVKMKEALTTDRGKTLVQKKPTMYPEWKSTFDAHIYEGRVIQIVLMRAAEDPMSEVTVGVSVLAERCKKNNGKAEFWLDLQPQAKVLMCVQYFLEDGDCKQSMRSEEEAMFPTMNRRGAIKQAKIHYIKNHE
notes: Used as crude bacterial cell lysate (30 µg) containing the fusion protein; also called MBP-δV1; δ-V1; not shown: fusion tag printed as 'myelin basic protein (MBP)'
B4: annexin V (other)
chain: AQVLRGTVTDFPGFDERADAETLRKAMKGLGTDEESILTLLTSRSNAQRQEISAAFKTLFGRDLLDDLKSELTGKFEKLIVALMKPSRLYDAYELKHALKGAGTNEKVLTEIIASRTPEELRAIKQVYEEEYGSSLEDDVVGDTSGYYQRMLVVLLQANRDPDAGIDEAQVEQDAQALFQAGELKWGTDEEKFITIFGTRSVSHLRKVFDKYMTISGFQIEETIDRETSGNLEQLLLAVVKSIRSIPAYLAETLYYAMKGAGTDDHTLIRVMVSRSEIDLFNIRKEFRKNFATSLYSMIKGDTSGDYKKALLLLCGEDD
notes: 10 µg annexin V was run on SDS-PAGE, blotted to nitrocellulose and used as the immobilized partner in the overlay assay; also called immobilized annexin V

Experiments:
annexin V [1] = target: B4; assay: overlay assay on blotted annexin V, FIG. 1D
Protocol: (§1) The strips were incubated with blocking buffer (50 mM Tris pH 7.5, 200 mM NaCl, 3% bovine serum albumin, 0.1% PEG20). […] The strips where then washed with wash buffer (50 mM Tris pH 7.5, 200 mM NaCl, 0.1% PEG20, 12 mM β-mercaptoethanol), and then incubated with fixative (0.2% formaldehyde in PBS) and neutralizing solution (0.2M glycine in PBS) at room temperature 20 min each. After washing with buffer, the strips were probed with antibodies according to the overlay protein, and resulting bands were visualized using ECL Western blotting.

annexin V [2] = target: B4; assay: overlay assay on annexin V blotted to nitrocellulose, FIG. 1D
Protocol: as §1

annexin V [3] = target: B4; assay: overlay assay on blotted annexin V (figure legend, FIGS. 1A-D)
Protocol: as §1

full-length δ-PKC = target: T1, full-length δ-PKC (Mus musculus (Mouse), UniProt P28867 1-674); assay: as above
T1 construct: Full-length δ-PKC in the overlay assay; also called δ-protein kinase C; delta PKC
Protocol: as §1

## B1
Annexin V [1]
  binding result: binds

## B2
Annexin V [2]
  binding result: no binding

## B3
Annexin V [3]
  binding result: binds

## B4
full-length δ-PKC
  binding result: binds
